The record followed here is a protein production outcome set (Wang et al. 2014).

The data set is described as follows: label from the status in PepcDB records.
With “MSDNNDRMYELEYPSPEVSGQTAGGPTLIVALQGYADAGHAVESSSSHLMDALDHRLIASFNNDELIDYRSRRPVVVIEHNEVTSMDELNLGLHVVRDNDNKPFLMLSGPEPDLRWGDFSNAVVDLVEKFGVENTICLYAAPMTVPHTRPTVVTAHGNSTDRLKDQVSLDTRMTVPGSASLMLEKLLKDKGKNVSGYTVHVPHYVSASPYPAATLKLLQSIADSADLNLPLLALERDAEKVHRQLMEQTEESSEIQRVVGALEQQYDSELERYRNRHPQAVMPGESELPSGDEIGAEFEKFLADLDDQGGSDHKETPEA”, the protein production entry is given as “not failed”. With “MEGLESVYAQAMYGMTRESKIMEHQGSDLIWGGNELMARELCSSSSYHHQLINPNLSSCFMSDLGVLGEIQQQQHVGNRASSIDPSSLDCLLSATSNSNNTSTEDDEGISVLFSDCQTLWSFGGVSSAESENREITTETTTTIKPKPLKRNRGGDGGTTETTTTTTKPKSLKRNRGDETGSHFSLVHPQDDSEKGGFKLIYDENQSKSKKPRTEKERGGSSNISFQHSTCLSDNVEPDAEAIAQMKEMIYRAAAFRPVNFGLEIVEKPKRKNVKISTDPQTVAARQRRERISEKIRVLQTLVPGGTKMDTASMLDEAANYLKFLRAQVKALENLRPKLDQTNLSFSSAPTSFPLFHPSFLPLQNPNQIHHPEC” the entry was “failed”; with “MRFGRFLAVVACATLLAACASTPTPPAGELSGTPTALESGPKKDPLNTLNSTGRAGTLSRSTVVNVDQSSVDWLRGPSSDIWDRIRKGFAMPDLEGTLVDDRTQWYAARPDYMERMVGRSSRYLYHIVEELERRKMPTELALLPFVESAFNPQAESTAKAAGMWQFIPSTGKTYNLKQNMFRDERRDVLASTDAALDYLQRLYDMFGDWQLALAAYNWGEGAVSRAIARNQARGLPTDYASLTMPTETRYYVPKLQAVKNIIANPAAYGVRLPEIPDHPYFVTVTTSRDIDVALAAKLANMPLDEFKALNPSFNRPVILGAANPQILLPFENAERFQYNLNTYRGGLSSWTAVTVDSRERVESLAARLNVDVDTLREINRIPKGMRLKAGSTVMIPRTERHDQDISASLVDTAMLAVEPDVPDAKRVVVRAGRKDTVSTVARRYGVSVKQVQSWNKLSGSKLVAGQSLVLMLRPNSAAAMRAERAGDEDDTPAKAAPHGKSGGKTQAVAKSEKYDKVEKSSRSAKAEPRKRVVVEASPHSSTSKSSGKSATRESKSSPTPATKSKSSRAQ”, “failed”; with “MINKPNQFVNHLSALKKHFASYKELREAFNDYHKHNGDELTTFFLHQFDKVMELVKQKDFKTAQSRCEEELAAPYLPKPLVSFFQSLLQLVNHDLLEQQNAALASLPAAKIIELVLQDYPNKLNMIHYLLPKTKAFVKPHLLQRLQFVLTDSELLELKRFSFFQALNQIPGFQGEQVEYFNSKLKQKFTLTLGEFEIAQQPDAKAYFEQLITQIQQLFLKEPVNAEFANEIIDAFLVSYFPLHPPVPLAQLAAKIYEYVSQIVLNEAVNLKDELIKLIVHTLYEQLDRPVGDEN”, “not failed”. On to “MVGLGTVINVILIIVGGFVGLFLKNFLKESLQKSLMQAMGVAVLFISISGVLEKMMLVEKSHLISNHTNMMIITLALGTVLGELLSLDSYIDKFGNYLKQKTGSGNDIKFVEAFVTSTCTVCIGAMAVVGSIQDGIAADHSILFAKGMLDMIIIAIMTVSLGKGALFSALPVALLQGSLTIVAFFMGSLLNPSSLDYLNLVGNMLIFCVGVNLLFNLNIKVINMLPAIILAILWGSFI”, for which the protein production entry is reported as “failed”. For “MSNQQNVWVAYATQTQQFHIRVAFQQGMTAWQAIESSGLLTQVELPQPYHLGIFGVRCVADRLLEAGDRVEIYRPLTINPKDIRRKRAEKNPVGRFQKGNRFK” the value was “failed”; for “PLADTRFLQRRRALSAQLAAKRIDAMLVTHLTHIRYLSGFTGSNAALIINKDLSARISTDGRYITQIAEQVPDIESLMARNCAPALLSDINGPKRVGFEADYLSVSQCEELRKSAGSDVELIPVTGAIEKLR”, “not failed”. Take “MELMKKFTSYTCSPIFVVVACAICLLVGFSINSSIIEIFASVMGIINVWLLSREKVSNFIFGIITVVAYLYIYYNTGLYALAVLACFQVGFNIFGWYYWVKNSDQEDNVVTSGLTKKGQILWTIIILAAWAVWGYVEINILHAQNAILDSLTAVLGLVAQYWLSKKLYENWILWILSNILFIIIYILNGYYVMLILVAIQLILSISGLLEWYASFKEQGENKLTL”: the protein production result is “failed”. Regarding “MTEPATAESAPAALREMRWWDIDPVLRMERELFPEDAWSRGMFWSELAHARGPGATRRYLVAEEDGHVVGYAGLVTSGEQADVQTIAVARDHWGTGLGARLLTELLRAATDFECTEVLLECRVDNTRAQRLYERFGFEPIGFRRGYYQPGNVDALVMRLTDPSTSVPGTERGTENHG”, the protein production result is listed as “failed”.

Turning to “DIQVITQTGVPGQPLNFKAEPESETSILLSWTPPRSDTIANYELVYKDGEHGEEQRITIEPGTSYRLQGLKPNSLYYFRLAARSPQGLGASTAEISARTMQS”, the protein production result is on record as “not failed”. With “MFLFMVSRNFSRRDFLKMTAGGVVLASAMPTLSWASLPDEPRVLAMNNLNTGELLETCYFDGNRYVGKELQRLNEFCRDHRRNEVHPMDKRLFDQISQIQKLIGTESEVIVISGYRSPVTNASLRSGSTGVAKKSLHMEGKAIDFRLDGVKLSTVRDAAISLKAGGVGYYPGSNFVHIDTGAVRSW” the entry was “failed”; with “MPYKNILTLISVNNDNFENYFRKIFLDVRSSGSKKTTINVFTEIQYQELVTLIREALLENIDIGYELFLWKKNEVDIFLKNLEKSEVDGLLVYCDDENKVFMSKIVDNLPTAIKRNLIKDFCRKLS”, “not failed”; with “MLMPRRMKYRKQQRGRLKGATKGGDYVAFGDYGLVALEPAWITAQQIEAARVAMVRHFRRGGKIFIRIFPDKPYTKKPLEVRMGKGKGNVEGYVAVVKPGRVMFEVAGVTEEQAMEALRIAGHKLPIKTKIVRRDAYDEAQ”, “not failed”. With “MRNSMMTIYPHLIICPHCDSVHHYRALNPGEAARCTRCQATLYRSGWINTGHSLALIQTAAIVFFIANSYPVLTVSFHALQNTATLWQAALALANGATLPLAIGCFFILIMAPFLQIMLTGWVLMFANKDRCAPGFIPVMKILLWLRPWSMLEIATLGFLIAAIKLSGFMQVMPGAGCWALAALMLLLVVVNSIDLRPLWSLVPTDSNHSVVRHEK” the entry was “failed”; with “DVDIQLVSSNNINDYLHVYDAFARPFGDSYANMVKQHIYSSYNLDDIERLVAYVNHQPVGIVDIIMTDKTIEIDGFGVLEEFQHQGIGSEIQAYVGRMANERPVILVADGKDTAKDMYLRQGYVYQGF”, “failed”; with “MQTEIITQLVLIFPEILIALGGITLLLFGVYSKASSSLTVTGLAIALFVATIVIIIIFPKSGLFQTNALIIDSFGRYMKILTLIGALFALIMSVNFTSTQKFDIFEFPVLVLLATLGMMLMISAGNMLSLYMGLELQSLALYVLAAINRNNIKSSEAGIKYFALGALSSGLLLYGISLVYGFTGQIGFREIAVALKGENLPLGVIFGIVFILAGLAFKISAVPFHMWTPDVYEGAPTPITAFFAGAPKVAAMALIVRIIVMTFIPLENTDGSMPAWQQILVFMAIASMILGAFAAIGQSNIKRLMAYSSISHMGYALVGLASGDMLGIKSVILYMTIYLSMTIGSFAFILGMRSSDGNVEDIYDLSGLVKTNPFMAITMTIQLFSLASIPPMAGFFGKWYTFSAAVHAGLTPLAIVGMIASVVGAFYYLRLIKIMWFDDAKAHFIVLSNEFRFCLSFSAFFILSYTLFGIWFADLAERAATALF”, “failed”.

With “MDINNKARIHWACRRGMRELDISIMPFFEHEYDSLSDDEKRIFIRLLECDDPDLFNWLMNHGKPADAELEMMVRLIQTRNRERGPVAI”, the protein production result was “not failed”. For “MKRLADVKISTLDLVPVRHDKGPAESLRNSLSLAQHVEKLGYNRFWVAEHHNMDGIASSATSVLLAYLAGGTSTIRVGAGGIMLPNHAPLVVAEQFGTLASLYPDRIDLGLGRAPGSDQMTARALRRERSGSAEDFPDDVTELMEYLGPRTPDQKVIAVPGSGTNVPIWLLGSSLFSAQLAGMRGLPYAFASHFAPRYMHEAIRVYRNHFQPSAVLDKPYVMLGVPLSAADTDEQAEYLATSVYQRILALMRGHSLMQRPPVDSMDGLWLPHEREAVASFLGLAMVGGPEKIRAKLDVLLEQTDADELIFTCDMYEHEDRLRSYEILAQ” the value was “failed”; for “GEVVLKMKVEGMTCHSCTSTIEGKIGKLQGVQRIKVSLDNQEATIVYQPHLISVEEMKKQIEAMGFPAFVKKIEGR”, “not failed”.
